Source: publication PMC11143254, “Cryo-EM structure of cadmium-bound human ABCB6” (Communications Biology, 2024)

Biological target: the molecule itself
Assay: cryo-EM structure; nanodisc-reconstituted hABCB6^core (0.5 mg/mL) incubated with 800 uM CdCl2 and 1 mM GSH (or PC2) at 4 °C for 30 min; C2 symmetry; inward-facing homodimer

B1: human ABCB6 core region lacking TMD0 (hABCB6^core) (domain or fragment, UniProt Q9NP58 206-842, looked up)
chain: APGLRPQSYTLQVHEEDQDVERSQVRSAAQQSTWRDFGRKLRLLSGYLWPRGSPALQLVVLICLGLMGLERALNVLVPIFYRNIVNLLTEKAPWNSLAWTVTSYVFLKFLQGGGTGSTGFVSNLRTFLWIRVQQFTSRRVELLIFSHLHELSLRWHLGRRTGEVLRIADRGTSSVTGLLSYLVFNVIPTLADIIIGIIYFSMFFNAWFGLIVFLCMSLYLTLTIVVTEWRTKFRRAMNTQENATRARAVDSLLNFETVKYYNAESYEVERYREAIIKYQGLEWKSSASLVLLNQTQNLVIGLGLLAGSLLCAYFVTEQKLQVGDYVLFGTYIIQLYMPLNWFGTYYRMIQTNFIDMENMFDLLKEETEVKDLPGAGPLRFQKGRIEFENVHFSYADGRETLQDVSFTVMPGQTLALVGPSGAGKSTILRLLFRFYDISSGCIRIDGQDISQVTQASLRSHIGVVPQDTVLFNDTIADNIRYGRVTAGNDEVEAAAQAAGIHDAIMAFPEGYRTQVGERGLKLSGGEKQRVAIARTILKAPGIILLDEATSALDTSNERAIQASLAKVCANRTTIVVAHRLSTVVNADQILVIKDGCIVERGRHEALLSRGGVYADMWQLQQGQEETSEDTKPQTMER
notes: human ABCB6, core region lacking the N-terminal TMD0, residues 206-842, codon-optimized synthetic gene; Homodimeric half-transporter; The C-terminal tag (thrombin site, eGFP, 10xHis) was removed by thrombin; residues of the cleavage site may remain; Modelled residues exclude the extreme N-terminus and residues 827-842; not shown: eGFP, C-terminal, cleaved; 10xHis, C-terminal, cleaved
- stoichiometry N: 2
